Source: patent publication US8026218
Bridge positions count the residues as written; N and C are the ends. Square brackets hold non-standard residues; d marks the D form. Primed or numbered codes have the meaning given here. Ends that are not written are not given here. * marks the point of attachment. O‑Bzl(CF3)2 = C-terminal bis(trifluoromethyl)benzyl ester; Glc = O-glucosyl on Ser side chain (Ser(OGlu)/Ser(OGlc)); NH(3,5-(CF3)2-benzyl) = FC(F)(F)c1cc(CN*)cc(C(F)(F)F)c1; OBzl(3,5-(CF3)2) = FC(F)(F)c1cc(CO*)cc(C(F)(F)F)c1; Glc″ = glucosyl on the serine side-chain oxygen; O‑Bzl(CF3)2(3) = C-terminal O-Bzl(CF3)2 ester; NH‑Bn(CF3)2 = C-terminal Bn(CF3)2 amide; Dmt = Cc1cc(O)cc(C)c1C[C@H](N)C(=O)O; Met(O) = CS(=O)CC[C@H](N)C(=O)O; Nle = CCCC[C@H](N)C(=O)O; Abu = CC[C@H](N)C(=O)O; Aib = CC(C)(N)C(=O)O; GABA = NCCCC(=O)O; βAla = NCCC(=O)O

B1: Tyr-DAla-Gly-Phe-γ-Abu-Trp-O-Bzl(CF3)2 (NP34) (peptide)
peptide: Y[dA]GF[GABA]W-{O‑Bzl(CF3)2(3)}
B2: Tyr-DAla-Gly-Phe-Ala-Trp-O-Bzl(CF3)2 (NP31) (peptide)
peptide: Y[dA]GFAW-{O‑Bzl(CF3)2(3)}
B3: Tyr-DAla-Gly-Phe-β-Ala-Trp-O-Bzl(CF3)2 (NP32) (peptide)
peptide: Y[dA]GF[βAla]W-{O‑Bzl(CF3)2(3)}
B4: Tyr-DAla-Gly-Phe-Gly-Trp-O-Bzl(CF3)2 (NP30) (peptide)
peptide: Y[dA]GFGW-{O‑Bzl(CF3)2(3)}
B5: Tyr-DAla-Gly-Phe-α-Abu-Trp-O-Bzl(CF3)2 (NP33) (peptide)
peptide: Y[dA]GF[Abu]W-{O‑Bzl(CF3)2(3)}
B6: Tyr-D-Ala-Gly-Trp-O-3′,5′(CF3)2-Bzl (NP44) (peptide)
peptide: Y[dA]GW-{OBzl(3,5-(CF3)2)}
B7: Tyr-DAla-Gly-Phe-Met-Trp-O-Bzl(CF3)2 (NP38) (peptide)
peptide: Y[dA]GFMW-{O‑Bzl(CF3)2}
B8: Tyr-DAla-Gly-Phe-Pro-Trp-O-Bzl(CF3)2 (NP39) (peptide)
peptide: Y[dA]GFPW-{O‑Bzl(CF3)2}
B9: Tyr-D-Ala-Gly-Phe-Trp-O-3′,5′(CF3)2-Bzl (NP36) (peptide)
peptide: Y[dA]GFW-{OBzl(3,5-(CF3)2)}
B10: Tyr-DAla-Gly-Phe-Aib-Trp-O-Bzl(CF3)2 (NP41) (peptide)
peptide: Y[dA]GF[Aib]W-{O‑Bzl(CF3)2(3)}
B11: Tyr-DAla-Gly-Phe-Leu-Trp-O-Bzl(CF3)2 (NP37) (peptide)
peptide: Y[dA]GFLW-{O‑Bzl(CF3)2}
B12: TyrDAlaGlyPheNleProLeuTrpNHBn(CF3)2 (TY045) (peptide)
peptide: YAGFXPLW
modifications: here or on the partner: D-Ala at 2; Nle at 5 (X); C-terminal NH-Bn(CF3)2 amide
B13: TyrDAlaGlyPheMetProLeuTrpOH (TY043) (peptide)
peptide: Y[dA]GFMPLW-OH
B14: Tyr[DCysGlyPheCys]ProLeuTrpNHBn(CF3)2 (TY039) (peptide)
peptide: Y[dC]GFCPLW-{NH(3,5-(CF3)2-benzyl)}
modifications: disulfide 2-5
B15: TyrDAlaGlyPheNleProLeuSer(OGlu)TrpNHBn(CF3)2 (TY055) (peptide)
peptide: Y[dA]GF[Nle]PLS(Glc)W-{NH‑Bn(CF3)2}
B16: TyrDAlaGlyPheNleSer(OGlu)LeuTrpNHBn(CF3)2 (TY044) (peptide)
peptide: Y[dA]GF[Nle]S(Glc″)LW-{NH‑Bn(CF3)2}
B17: H-Tyr-D-Ala-Gly-Phe-Met(O)-Pro-Leu-Trp-O-3,5-Bzl(CF3)2 (peptide)
peptide: H-Y[dA]GF[Met(O)]PLW-{OBzl(3,5-(CF3)2)}
modifications: also: TFA salt
B18: TyrDAlaGlyPheNleProSer(OGlu)TrpNHBn(CF3)2 (TY041) (peptide)
peptide: Y[dA]GF[Nle]PS(Glc)W-{NH‑Bn(CF3)2}
B19: TyrDAlaGlyPheSer(OGlu)ProLeuTrpNHBn(CF3)2 (TY042) (peptide)
peptide: Y[dA]GFSPLW-{NH(3,5-(CF3)2-benzyl)}
modifications: not fully specified (residue 5); printed as TyrDAlaGlyPheSer(OGlu)ProLeuTrpNHBn(CF3)2
B20: DmtDAlaGlyPheNleProSer(OGlu)TrpNHBn(CF3)2 (TY056) (peptide)
peptide: [Dmt][dA]GF[Nle]PS(Glc)W-{NH‑Bn(CF3)2}
B21: H-Tyr-D-Ala-Gly-Phe-Nle-Pro-Leu-Trp-O-3,5-Bzl(CF3)2 (peptide)
peptide: YAGFXPLW
modifications: here or on the partner: D-Ala at 2; Nle (norleucine, written X) at 5; C-terminal 3,5-bis(trifluoromethyl)benzyl ester

target: µ opioid receptor of the guinea pig isolated ileum (guinea pig) (UniProt P97266); experiment: cell-based or functional assay
Sequence (P97266 whole entry): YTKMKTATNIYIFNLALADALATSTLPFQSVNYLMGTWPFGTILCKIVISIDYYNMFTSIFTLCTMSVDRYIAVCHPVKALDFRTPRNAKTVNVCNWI

Binder | GPI/LMMP µ-agonist IC50 [nM]
B1 | 200
B2 | 401
B3 | 435
B4 | 25.7
B5 | 600

target: guinea pig NK1 receptor (guinea pig) (UniProt P30547); experiment: cell-based or functional assay
Sequence (P30547 whole entry): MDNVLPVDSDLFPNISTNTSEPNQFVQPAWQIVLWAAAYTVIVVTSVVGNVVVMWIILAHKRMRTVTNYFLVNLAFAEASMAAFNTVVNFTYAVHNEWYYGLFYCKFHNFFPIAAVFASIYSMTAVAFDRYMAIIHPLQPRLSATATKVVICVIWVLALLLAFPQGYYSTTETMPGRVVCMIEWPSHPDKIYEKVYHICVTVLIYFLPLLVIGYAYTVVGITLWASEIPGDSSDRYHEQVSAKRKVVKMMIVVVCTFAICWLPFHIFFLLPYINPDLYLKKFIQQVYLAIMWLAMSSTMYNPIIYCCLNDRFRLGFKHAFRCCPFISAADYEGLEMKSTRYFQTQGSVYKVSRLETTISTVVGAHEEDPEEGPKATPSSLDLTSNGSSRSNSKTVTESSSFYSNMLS

Binder | GPI/LMMP SP antagonist Ke [nM] | GPI SP-antagonist Ke [nM]
B1 | 0.96 | –
B2 | 18.6 | –
B3 | 250 | –
B6 | – | 5
B7 | 2 | –
B8 | 1.8 | –
B4 | 58.9 | –
B9 | – | 38
B5 | 5.6 | –

target: δ opioid receptor of the mouse isolated vas deferens (mouse) (UniProt P32300); experiment: cell-based or functional assay
Sequence (P32300 whole entry, stated change not applied): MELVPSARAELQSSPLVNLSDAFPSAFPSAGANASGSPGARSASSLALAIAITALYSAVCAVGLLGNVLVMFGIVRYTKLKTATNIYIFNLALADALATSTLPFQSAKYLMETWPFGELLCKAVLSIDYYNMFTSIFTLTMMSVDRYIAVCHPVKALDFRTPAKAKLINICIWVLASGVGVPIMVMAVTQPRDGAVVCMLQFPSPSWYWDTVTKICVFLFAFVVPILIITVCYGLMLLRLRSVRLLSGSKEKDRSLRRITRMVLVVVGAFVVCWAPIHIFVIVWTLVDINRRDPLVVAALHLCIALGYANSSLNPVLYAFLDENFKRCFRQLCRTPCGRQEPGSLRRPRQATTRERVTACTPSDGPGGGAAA

Binder | MVD δ-agonist IC50 [nM]
B1 | 67.9
B2 | 6.4
B3 | 12.6
B10 | 36.2
B6 | 303
B11 | 25.7
B7 | 9.07
B8 | 84.6
B4 | 20.9
B9 | 43.1
B5 | 12.4

target: δ opioid receptor of the mouse isolated vas deferens (mouse), P32300; experiment: cell-based or functional assay
Sequence (P32300 whole entry, stated change not applied): as above

Binder | MVD opioid(delta) agonist IC50 [nM] | MVD (δ) opioid agonist IC50 [nM]
B12 | 13.6 | –
B13 | 8.18 | –
B14 | 73.1 | –
B15 | 17.4 | –
B16 | 18 | –
B17 | – | 33
B18 | 12.7 | –
B19 | 109 | –
B20 | 3.62 | –
B21 | – | 16.8
